Laboratory results as given in patent US20180256644A1.

What was measured:
[1] = target: human CD28 (full-length, expressed on transfected Expi293F cells) (human) (UniProt P10747); assay: flow cytometry, transfected Expi293 cells
[2] = target: human PD-L1 (full-length, expressed on transfected Expi293F cells) (human) (UniProt Q9NZQ7); assay: flow cytometry, transfected Expi293 cells
[3] = target: human CD28 (full-length, expressed on transfected Expi293F cells) (human) (UniProt P10747); assay: flow cytometry; ratio to WT parental stack
[4] = target: human PD-L1 (full-length, expressed on transfected Expi293F cells) (human) (UniProt Q9NZQ7); assay: flow cytometry; ratio to WT parental stack
[5] = target: human PD-L1, full-length, expressed on Expi293F cells (human) (UniProt Q9NZQ7); assay: flow cytometry, Expi293 cells expressing human PD-L1
[6] = target: human CTLA4, full-length, expressed on Expi293F cells (human) (UniProt P16410); assay: flow cytometry, Expi293 cells expressing human CTLA-4
UniProt P16410, sequence (P16410 36-223): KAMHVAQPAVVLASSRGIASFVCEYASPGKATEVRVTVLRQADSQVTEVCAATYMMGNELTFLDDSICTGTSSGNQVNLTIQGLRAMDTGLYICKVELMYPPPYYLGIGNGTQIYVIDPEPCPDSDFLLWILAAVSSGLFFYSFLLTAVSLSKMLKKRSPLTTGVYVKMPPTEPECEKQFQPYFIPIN

[7] = target: human CD28 (full-length, expressed on transfected Expi293F cells) (human) (UniProt P10747); assay: flow cytometry; ratio to WT ICOSL ECD-Fc

Row | MFI [1] [MFI] | MFI [2] [MFI] | also measured | Molecule
1 | 6340 |  |  | NKp30 WT / ICOSL WT stacked IgV-Fc (Fc fusion)
2 |  | 2970 |  | ICOSL WT / CD80 WT stacked IgV-Fc (Fc fusion)
3 | 1690 |  |  | NKp30 WT / CD86 WT stacked IgV-Fc (Fc fusion)
4 | 1230 | 2660 |  | CD80 WT / ICOSL WT stacked IgV-Fc (Fc fusion)
5 |  | 2080 |  | CD80 WT / CD86 WT stacked IgV-Fc (Fc fusion)
6 | 938 |  | WT parental MFI ratio [3]: 0.57 | CD80 I67T/L70Q/A91G/T120S / CD80 E88D/K89R/D90K/A91G/F92Y/K93R stacked IgV-Fc (Fc fusion)
7 | 7920 |  |  | ICOSL WT / Nkp30 WT stacked IgV-Fc (Fc fusion)
8 | 1630 |  |  | CD80 WT / CD80 WT stacked IgV-Fc (Fc fusion)
9 |  | 2110 | WT parental MFI ratio [4]: 1.39 | CD86 Q35H/H90L/Q102H / CD80 A12T/H18L/N43V/F59L/E77K/P109S/I118T stacked IgV-Fc (Fc fusion)
10 |  |  | MFI [5]: 9 MFI; MFI parental ratio (fold of WT CD80) [5]: 0.13 | CD80 variant A91G/S103P ECD-Fc fusion
11 |  |  | MFI [6]: 14 MFI; MFI parental ratio (fold of WT CD80) [6]: 0.07 | CD80 variant L70Q/A91G/T110A/T120S/T130A ECD-Fc fusion (Fc fusion) VIHVTKEVKEVATLSCGHNVSVEELAQTRIYWQKEKKMVLTMMSGDMNIWPEYKNRTIFDITNNLSIVIQALRPSDEGTYECVVLKYEKDGFKREHLAEVTLSVKADFPAPSISDFEIPSSNIRRIICSASGGFPEPHLSWLENGEELNAINTTVSQDPETELYAVSSKLDFNMTTNHSFMCLIKYGHLRVNQTFNWNTTKQEHFPDNAAAEPKSSDKTHTCPPCPAPELLGGPSVFLFPPKPKDTLMISRTPEVTCVVVDVSHEDPEVKFNWYVDGVEVHNAKTKPCEEQYGSTYRCVSVLTVLHQDWLNGKEYKCKVSNKALPAPIEKTISKAKGQPREPQVYTLPPSREEMTKNQVSLTCLVKGFYPSDIAVEWESNGQPENNYKTTPPVLDSDGSFFLYSKLTVDKSRWQQGNVFSCSVMHEALHNHYTQKSLSLSPGK
12 |  |  | MFI parental ratio [7]: 0.89 | ICOSL variant ECD-Fc F120S/Y152H/N201S (Fc fusion) DTQEKEVRAMVGSDVELSCACPEGSRFDLNDVYVYWQTSESKTVVTYHIPQNSSLENVDSRYRNRALMSPAGMLRGDFSLRLFNVTPQDEQKFHCLVLSQSLGFQEVLSVEVTLHVAANSSVPVVSAPHSPSQDELTFTCTSINGYPRPNVHWINKTDNSLLDQALQNDTVFLNMRGLYDVVSVLRIARTPSVNIGCCIESVLLQQNLTVGSQTGNDIGERDKITENPVSTGEKNAATAAAEPKSSDKTHTCPPCPAPELLGGPSVFLFPPKPKDTLMISRTPEVTCVVVDVSHEDPEVKFNWYVDGVEVHNAKTKPCEEQYGSTYRCVSVLTVLHQDWLNGKEYKCKVSNKALPAPIEKTISKAKGQPREPQVYTLPPSREEMTKNQVSLTCLVKGFYPSDIAVEWESNGQPENNYKTTPPVLDSDGSFFLYSKLTVDKSRWQQGNVFSCSVMHEALHNHYTQKSLSLSPGK
13 |  |  | MFI [5]: 9 MFI; MFI parental ratio (fold of WT CD80) [5]: 0.13 | CD80 variant V20L/L70Q/A91S/T120S/T130A ECD-Fc fusion (Fc fusion) VIHVTKEVKEVATLSCGHNLSVEELAQTRIYWQKEKKMVLTMMSGDMNIWPEYKNRTIFDITNNLSIVIQALRPSDEGTYECVVLKYEKDSFKREHLAEVTLSVKADFPTPSISDFEIPSSNIRRIICSASGGFPEPHLSWLENGEELNAINTTVSQDPETELYAVSSKLDFNMTTNHSFMCLIKYGHLRVNQTFNWNTTKQEHFPDNAAAEPKSSDKTHTCPPCPAPELLGGPSVFLFPPKPKDTLMISRTPEVTCVVVDVSHEDPEVKFNWYVDGVEVHNAKTKPCEEQYGSTYRCVSVLTVLHQDWLNGKEYKCKVSNKALPAPIEKTISKAKGQPREPQVYTLPPSREEMTKNQVSLTCLVKGFYPSDIAVEWESNGQPENNYKTTPPVLDSDGSFFLYSKLTVDKSRWQQGNVFSCSVMHEALHNHYTQKSLSLSPGK
